Measurements reported in patent publication US20210324028A1 (Pfizer, published 2021).

T1: human IL-2Rβ (human, UniProt P14784 27-240, limits assumed)
T1 construct: also called hIL-2Rβ; IL-2 receptor beta
T1 sequence (looked up): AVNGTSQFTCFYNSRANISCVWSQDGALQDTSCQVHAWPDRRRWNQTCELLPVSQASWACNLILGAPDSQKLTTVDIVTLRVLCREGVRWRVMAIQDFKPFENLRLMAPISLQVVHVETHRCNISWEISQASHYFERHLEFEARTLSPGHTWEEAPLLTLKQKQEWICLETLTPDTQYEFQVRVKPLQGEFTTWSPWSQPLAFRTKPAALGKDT


Experiments:
[1] = target: T2, human IL-15Rα (human, UniProt Q13261 31-205, limits assumed); assay: SPR, steady state
T2 construct: also called hIL-15Rα; IL-15 receptor alpha
T2 sequence (Q13261 31-205 limits assumed): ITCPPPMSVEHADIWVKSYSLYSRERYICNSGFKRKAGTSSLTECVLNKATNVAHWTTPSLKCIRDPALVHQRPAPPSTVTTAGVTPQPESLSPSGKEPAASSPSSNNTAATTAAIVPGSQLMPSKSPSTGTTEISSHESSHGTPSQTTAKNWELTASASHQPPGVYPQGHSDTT

[2] = target: T1, human IL-2Rβ; assay: SPR, steady state

| Binder | Kd [1] | Kd [2] |
| --- | --- | --- |
| hIL-15 V49R/D30Q (ligand) NWVNVISDLKKIEDLIQSMHIDATLYTESQVHPSCKVTAMKCFLLELQRISLESGDASIHDTVENLIILANNSLSSNGNVTESGCKECEELEEKNIKEFLQSFVHIVQMFINTGGGGSGHHHHHHHHGGGLNDIFEAQKIEWHE | 111 nM | 197 nM |
| hIL-15 V49R/H32G (ligand) NWVNVISDLKKIEDLIQSMHIDATLYTESDVGPSCKVTAMKCFLLELQRISLESGDASIHDTVENLIILANNSLSSNGNVTESGCKECEELEEKNIKEFLQSFVHIVQMFINTGGGGSGHHHHHHHHGGGLNDIFEAQKIEWHE | 249 nM | 459 nM |
| hIL-15 V49R/E64H (ligand) NWVNVISDLKKIEDLIQSMHIDATLYTESDVHPSCKVTAMKCFLLELQRISLESGDASIHDTVHNLIILANNSLSSNGNVTESGCKECEELEEKNIKEFLQSFVHIVQMFINTGGGGSGHHHHHHHHGGGLNDIFEAQKIEWHE | 112 nM | > 1000 nM |
| hIL-15 V49R/H32A (ligand) NWVNVISDLKKIEDLIQSMHIDATLYTESDVAPSCKVTAMKCFLLELQRISLESGDASIHDTVENLIILANNSLSSNGNVTESGCKECEELEEKNIKEFLQSFVHIVQMFINTGGGGSGHHHHHHHHGGGLNDIFEAQKIEWHE | 152 nM | 218 nM |
| hIL-15 V49R/H32Q (ligand) NWVNVISDLKKIEDLIQSMHIDATLYTESDVQPSCKVTAMKCFLLELQRISLESGDASIHDTVENLIILANNSLSSNGNVTESGCKECEELEEKNIKEFLQSFVHIVQMFINTGGGGSGHHHHHHHHGGGLNDIFEAQKIEWHE | 64 nM | 147 nM |
| hIL-15 V49R/H32M (ligand) NWVNVISDLKKIEDLIQSMHIDATLYTESDVMPSCKVTAMKCFLLELQRISLESGDASIHDTVENLIILANNSLSSNGNVTESGCKECEELEEKNIKEFLQSFVHIVQMFINTGGGGSGHHHHHHHHGGGLNDIFEAQKIEWHE | 134 nM | 161 nM |
| hIL-15 V49R/E64D (ligand) NWVNVISDLKKIEDLIQSMHIDATLYTESDVHPSCKVTAMKCFLLELQRISLESGDASIHDTVDNLIILANNSLSSNGNVTESGCKECEELEEKNIKEFLQSFVHIVQMFINTGGGGSGHHHHHHHHGGGLNDIFEAQKIEWHE | 108 nM | 291 nM |
| hIL-15 V49R/H32L (ligand) NWVNVISDLKKIEDLIQSMHIDATLYTESDVLPSCKVTAMKCFLLELQRISLESGDASIHDTVENLIILANNSLSSNGNVTESGCKECEELEEKNIKEFLQSFVHIVQMFINTGGGGSGHHHHHHHHGGGLNDIFEAQKIEWHE | 189 nM | 159 nM |
| hIL-15 V49R/H32S (ligand) NWVNVISDLKKIEDLIQSMHIDATLYTESDVSPSCKVTAMKCFLLELQRISLESGDASIHDTVENLIILANNSLSSNGNVTESGCKECEELEEKNIKEFLQSFVHIVQMFINTGGGGSGHHHHHHHHGGGLNDIFEAQKIEWHE | 110 nM | 176 nM |
| hIL-15 V49R/D30Y (ligand) NWVNVISDLKKIEDLIQSMHIDATLYTESYVHPSCKVTAMKCFLLELQRISLESGDASIHDTVENLIILANNSLSSNGNVTESGCKECEELEEKNIKEFLQSFVHIVQMFINTGGGGSGHHHHHHHHGGGLNDIFEAQKIEWHE | 159 nM | 231 nM |
| hIL-15 V49R/E64Q (ligand) NWVNVISDLKKIEDLIQSMHIDATLYTESDVHPSCKVTAMKCFLLELQRISLESGDASIHDTVQNLIILANNSLSSNGNVTESGCKECEELEEKNIKEFLQSFVHIVQMFINTGGGGSGHHHHHHHHGGGLNDIFEAQKIEWHE | 127 nM | > 500 nM |
| hIL-15 V49R/H32E (ligand) NWVNVISDLKKIEDLIQSMHIDATLYTESDVEPSCKVTAMKCFLLELQRISLESGDASIHDTVENLIILANNSLSSNGNVTESGCKECEELEEKNIKEFLQSFVHIVQMFINTGGGGSGHHHHHHHHGGGLNDIFEAQKIEWHE | 108 nM | 130 nM |
| hIL-15 V49R/D30R (ligand) NWVNVISDLKKIEDLIQSMHIDATLYTESRVHPSCKVTAMKCFLLELQRISLESGDASIHDTVENLIILANNSLSSNGNVTESGCKECEELEEKNIKEFLQSFVHIVQMFINTGGGGSGHHHHHHHHGGGLNDIFEAQKIEWHE | 155 nM | 290 nM |
| hIL-15 V49R/E64N (ligand) NWVNVISDLKKIEDLIQSMHIDATLYTESDVHPSCKVTAMKCFLLELQRISLESGDASIHDTVNNLIILANNSLSSNGNVTESGCKECEELEEKNIKEFLQSFVHIVQMFINTGGGGSGHHHHHHHHGGGLNDIFEAQKIEWHE | 115 nM | > 500 nM |
| hIL-15 V49R/E64A (ligand) NWVNVISDLKKIEDLIQSMHIDATLYTESDVHPSCKVTAMKCFLLELQRISLESGDASIHDTVANLIILANNSLSSNGNVTESGCKECEELEEKNIKEFLQSFVHIVQMFINTGGGGSGHHHHHHHHGGGLNDIFEAQKIEWHE | 130 nM | > 500 nM |
| hIL-15 V49R/H32R (ligand) NWVNVISDLKKIEDLIQSMHIDATLYTESDVRPSCKVTAMKCFLLELQRISLESGDASIHDTVENLIILANNSLSSNGNVTESGCKECEELEEKNIKEFLQSFVHIVQMFINTGGGGSGHHHHHHHHGGGLNDIFEAQKIEWHE | ~131 nM | 156 nM |
| hIL-15 V49R/D30S (ligand) NWVNVISDLKKIEDLIQSMHIDATLYTESSVHPSCKVTAMKCFLLELQRISLESGDASIHDTVENLIILANNSLSSNGNVTESGCKECEELEEKNIKEFLQSFVHIVQMFINTGGGGSGHHHHHHHHGGGLNDIFEAQKIEWHE | 146 nM | 249 nM |
| hIL-15 V49R/H32D (ligand) NWVNVISDLKKIEDLIQSMHIDATLYTESDVDPSCKVTAMKCFLLELQRISLESGDASIHDTVENLIILANNSLSSNGNVTESGCKECEELEEKNIKEFLQSFVHIVQMFINTGGGGSGHHHHHHHHGGGLNDIFEAQKIEWHE | 85.5 nM | 123 nM |
| hIL-15 V49R/H32P (ligand) NWVNVISDLKKIEDLIQSMHIDATLYTESDVPPSCKVTAMKCFLLELQRISLESGDASIHDTVENLIILANNSLSSNGNVTESGCKECEELEEKNIKEFLQSFVHIVQMFINTGGGGSGHHHHHHHHGGGLNDIFEAQKIEWHE | 162 nM | 146 nM |
| hIL-15 V49R/H32K (ligand) NWVNVISDLKKIEDLIQSMHIDATLYTESDVKPSCKVTAMKCFLLELQRISLESGDASIHDTVENLIILANNSLSSNGNVTESGCKECEELEEKNIKEFLQSFVHIVQMFINTGGGGSGHHHHHHHHGGGLNDIFEAQKIEWHE | 92.8 nM | 149 nM |
| hIL-15 V49R/H32V (ligand) NWVNVISDLKKIEDLIQSMHIDATLYTESDVVPSCKVTAMKCFLLELQRISLESGDASIHDTVENLIILANNSLSSNGNVTESGCKECEELEEKNIKEFLQSFVHIVQMFINTGGGGSGHHHHHHHHGGGLNDIFEAQKIEWHE | 99.8 nM | 247 nM |
| hIL-15 V49R/H32I (ligand) NWVNVISDLKKIEDLIQSMHIDATLYTESDVIPSCKVTAMKCFLLELQRISLESGDASIHDTVENLIILANNSLSSNGNVTESGCKECEELEEKNIKEFLQSFVHIVQMFINTGGGGSGHHHHHHHHGGGLNDIFEAQKIEWHE | 113 nM | 110 nM |
| hIL-15 V49R/D61A (ligand) NWVNVISDLKKIEDLIQSMHIDATLYTESDVHPSCKVTAMKCFLLELQRISLESGDASIHATVENLIILANNSLSSNGNVTESGCKECEELEEKNIKEFLQSFVHIVQMFINTGGGGSGHHHHHHHHGGGLNDIFEAQKIEWHE | 78.2 nM | > 500 nM |
| hIL-15 V49R/D30T (ligand) NWVNVISDLKKIEDLIQSMHIDATLYTESTVHPSCKVTAMKCFLLELQRISLESGDASIHDTVENLIILANNSLSSNGNVTESGCKECEELEEKNIKEFLQSFVHIVQMFINTGGGGSGHHHHHHHHGGGLNDIFEAQKIEWHE | 184 nM | 269 nM |
| hIL-15 V49R/E64T (ligand) NWVNVISDLKKIEDLIQSMHIDATLYTESDVHPSCKVTAMKCFLLELQRISLESGDASIHDTVTNLIILANNSLSSNGNVTESGCKECEELEEKNIKEFLQSFVHIVQMFINTGGGGSGHHHHHHHHGGGLNDIFEAQKIEWHE | 141 nM | > 500 nM |
| hIL-15 V49R/D30V (ligand) NWVNVISDLKKIEDLIQSMHIDATLYTESVVHPSCKVTAMKCFLLELQRISLESGDASIHDTVENLIILANNSLSSNGNVTESGCKECEELEEKNIKEFLQSFVHIVQMFINTGGGGSGHHHHHHHHGGGLNDIFEAQKIEWHE | 153 nM | 258 nM |
| hIL-15 V49R/H32N (ligand) NWVNVISDLKKIEDLIQSMHIDATLYTESDVNPSCKVTAMKCFLLELQRISLESGDASIHDTVENLIILANNSLSSNGNVTESGCKECEELEEKNIKEFLQSFVHIVQMFINTGGGGSGHHHHHHHHGGGLNDIFEAQKIEWHE | 85.9 nM | 124 nM |
